Results as given in patent US20230414780A1 (VECT HORUS, published 2023).

Columns and labels:
[1] = target: T1, mouse TfR ectodomain fused to a mouse IgG1 Fc fragment (mouse, UniProt Q62351 89-763); experiment: SPR, kinetic
T1 construct: extracellular domain; not shown: mouse IgG1 Fc fragment
Outline: (§1)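 TfR–mouse Fc fusions, produced in-house, captured on HC 1500M or CM5 chips either directly or via immobilized anti-mouse IgG. VHHs injected in single-cycle or multiple-cycle kinetic mode on Biacore T200.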

[2] = target: T2, rhesus monkey transferrin receptor (rhTfR) fused to EGFP, on CHO cells (rhesus monkey); experiment: apparent Kd, flow cytometry, CHO cells
T2 construct: whole, on cells; also called rhesus monkey TfR
Outline: (§2)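 CHO cells expressing TfR-EGFP fusions, blocked in PBS/BSA 2%, then incubated with increasing VHH concentrations for 1 hr at 4° C. Bound VHH detected via anti-6His antibody and Alexa647 secondary, cells PFA-fixed, read by flow cytometry. Apparent Kd from nonlinear fit.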

[3] = target: T3, mouse transferrin receptor (mTfR) fused to EGFP, on CHO cells (mouse, UniProt Q62351 1-763); experiment: apparent Kd, flow cytometry, CHO cells
T3 construct: whole, on cells; also called mouse TfR; CHO-mTfR-EGFP; not shown: EGFP
Outline: as §2

[4] = target: T4, human transferrin receptor (hTfR) fused to EGFP, on CHO cells (human, UniProt P02786 1-760); experiment: apparent Kd, flow cytometry, CHO cells
T4 construct: whole, on cells; also called human TfR; CHO-hTfR-EGFP; not shown: EGFP from pEGFP-C1 vector, fused to the N-terminal (intracellular) end of hTfR
Outline: as §2

[5] = target: T1, mouse TfR ectodomain fused to a mouse …; experiment: SPR, at equilibrium
Outline: as §1

[6] = target: T5, murine TfR expressed by murine neuroblastoma Neuro-2a cells (mouse, UniProt Q62351 1-763); experiment: competition with the fluorescent reference VHH on Neuro-2a cells as in FIG. 25; Ki/app on mTfR
T5 construct: whole, on cells; also called mTfR (N2a cells)
Protocol: (§3) The binding of VHH-Oligo and VHH-hFc-Oligo conjugates to mTfR was evaluated using a competition assay on living cells expressing the receptor of interest, namely murine neuroblastoma Neuro-2a cells (N2a). N2a cells were grown in Dulbecco's Modified Eagle Medium (DMEM) GlutaMAX supplemented with 10% v/v FBS in 5% CO₂ at 37° C. Cells were seeded two days before experiments in 96-well plates at a density of 50.000 cells/well. […] Resuspended cells were transferred in a 96-deepwell plate (V-bottom) containing 1% fetal bovine serum (FBS)/0.02% sodium azide in phosphate-buffered saline (PBS) and then centrifuged for 5 min at 2000 rpm at 4° C. After removing the supernatant, 5 mM EDTA in D-PBS and 4% paraformaldehyde (PFA) (v/v 1:1) were added into wells to fix cells for 15 min at room temperature. PFA was removed by centrifugation (5 min, 3000 rpm, 4° C.) and cells were resuspended with 5 mM EDTA in D-PBS. Then the cellular A680-associated fluorescence signal was quantified using an Attune™ NxT flow cytometer (Thermo Fisher Scientific) equipped with Attune™ NxT v3.1.2. Experimental data (experimental triplicates) were fitted with GraphPad Prism® software using a nonlinear fit to determine the apparent Ki inhibition constants.

[7] = target: T6, human TfR ectodomain fused to a mouse IgG1 Fc fragment (human, UniProt P02786 89-760); experiment: SPR, kinetic
T6 construct: extracellular domain; ectodomain fused to the N-terminal end of the Fc, made in-house; not shown: mouse IgG1 Fc fragment
Outline: as §1

[8] = target: T5, murine TfR expressed by murine …; experiment: competition with the fluorescent reference VHH on Neuro-2a cells as in FIG. 25; Ki/app on mTfR, free VHH
Protocol: as §3

T6 sequence (P02786 89-760): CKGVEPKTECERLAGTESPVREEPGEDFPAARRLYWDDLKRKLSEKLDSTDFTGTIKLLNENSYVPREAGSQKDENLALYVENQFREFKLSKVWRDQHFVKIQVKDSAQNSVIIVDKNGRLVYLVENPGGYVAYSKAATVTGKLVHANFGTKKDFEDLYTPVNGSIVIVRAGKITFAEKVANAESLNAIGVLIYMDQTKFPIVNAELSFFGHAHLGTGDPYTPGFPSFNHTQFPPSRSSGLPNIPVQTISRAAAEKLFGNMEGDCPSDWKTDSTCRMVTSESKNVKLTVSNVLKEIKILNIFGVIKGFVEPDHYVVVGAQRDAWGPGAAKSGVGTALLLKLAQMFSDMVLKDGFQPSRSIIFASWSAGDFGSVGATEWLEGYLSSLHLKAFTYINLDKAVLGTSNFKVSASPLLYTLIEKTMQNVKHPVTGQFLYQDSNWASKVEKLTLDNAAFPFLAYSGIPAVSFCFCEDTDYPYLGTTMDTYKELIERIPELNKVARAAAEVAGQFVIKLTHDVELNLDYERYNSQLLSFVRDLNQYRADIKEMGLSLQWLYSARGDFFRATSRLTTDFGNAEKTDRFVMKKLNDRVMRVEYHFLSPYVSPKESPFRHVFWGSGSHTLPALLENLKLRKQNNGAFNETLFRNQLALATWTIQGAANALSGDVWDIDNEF
T3 sequence (Q62351 whole entry, the tested form may be a part): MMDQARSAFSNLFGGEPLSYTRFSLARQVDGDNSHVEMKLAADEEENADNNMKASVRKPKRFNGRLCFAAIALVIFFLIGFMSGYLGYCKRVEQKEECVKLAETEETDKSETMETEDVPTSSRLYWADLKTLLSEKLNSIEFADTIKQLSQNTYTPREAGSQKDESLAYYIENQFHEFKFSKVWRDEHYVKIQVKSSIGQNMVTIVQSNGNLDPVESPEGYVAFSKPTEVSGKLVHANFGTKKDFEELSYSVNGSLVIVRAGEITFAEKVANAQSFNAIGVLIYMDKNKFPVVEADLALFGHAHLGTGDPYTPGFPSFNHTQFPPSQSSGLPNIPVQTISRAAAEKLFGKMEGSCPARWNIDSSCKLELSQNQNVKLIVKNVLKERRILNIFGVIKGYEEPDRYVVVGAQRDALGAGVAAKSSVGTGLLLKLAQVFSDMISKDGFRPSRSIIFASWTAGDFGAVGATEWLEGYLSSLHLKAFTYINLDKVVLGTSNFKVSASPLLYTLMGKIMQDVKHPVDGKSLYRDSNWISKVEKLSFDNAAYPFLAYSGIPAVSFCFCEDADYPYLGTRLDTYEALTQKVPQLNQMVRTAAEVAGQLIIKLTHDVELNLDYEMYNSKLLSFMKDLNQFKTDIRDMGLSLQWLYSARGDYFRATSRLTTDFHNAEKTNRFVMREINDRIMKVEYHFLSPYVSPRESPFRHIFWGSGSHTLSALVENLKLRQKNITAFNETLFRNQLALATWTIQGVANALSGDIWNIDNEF
T5 sequence (Q62351 whole entry): as the sequence (Q62351 whole entry, the tested form may be a part) above
T1 sequence (Q62351 89-763): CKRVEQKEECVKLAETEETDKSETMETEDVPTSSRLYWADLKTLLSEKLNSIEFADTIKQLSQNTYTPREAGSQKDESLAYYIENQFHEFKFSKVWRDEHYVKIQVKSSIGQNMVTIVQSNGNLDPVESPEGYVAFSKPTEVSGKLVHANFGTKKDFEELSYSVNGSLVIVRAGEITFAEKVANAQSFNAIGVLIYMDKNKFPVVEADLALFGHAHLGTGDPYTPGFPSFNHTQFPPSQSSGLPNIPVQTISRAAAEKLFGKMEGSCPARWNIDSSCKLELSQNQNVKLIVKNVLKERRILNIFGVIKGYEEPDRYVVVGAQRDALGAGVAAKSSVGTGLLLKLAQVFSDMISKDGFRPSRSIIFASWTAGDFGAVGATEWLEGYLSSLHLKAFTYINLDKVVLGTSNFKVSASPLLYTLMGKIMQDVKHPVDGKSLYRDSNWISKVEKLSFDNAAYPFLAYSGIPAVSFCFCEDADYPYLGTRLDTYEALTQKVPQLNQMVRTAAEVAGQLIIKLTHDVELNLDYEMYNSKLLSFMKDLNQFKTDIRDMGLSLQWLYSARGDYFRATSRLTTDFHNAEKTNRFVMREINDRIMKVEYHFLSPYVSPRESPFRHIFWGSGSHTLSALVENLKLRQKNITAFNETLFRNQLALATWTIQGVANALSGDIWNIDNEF
T4 sequence (P02786 whole entry, the tested form may be a part): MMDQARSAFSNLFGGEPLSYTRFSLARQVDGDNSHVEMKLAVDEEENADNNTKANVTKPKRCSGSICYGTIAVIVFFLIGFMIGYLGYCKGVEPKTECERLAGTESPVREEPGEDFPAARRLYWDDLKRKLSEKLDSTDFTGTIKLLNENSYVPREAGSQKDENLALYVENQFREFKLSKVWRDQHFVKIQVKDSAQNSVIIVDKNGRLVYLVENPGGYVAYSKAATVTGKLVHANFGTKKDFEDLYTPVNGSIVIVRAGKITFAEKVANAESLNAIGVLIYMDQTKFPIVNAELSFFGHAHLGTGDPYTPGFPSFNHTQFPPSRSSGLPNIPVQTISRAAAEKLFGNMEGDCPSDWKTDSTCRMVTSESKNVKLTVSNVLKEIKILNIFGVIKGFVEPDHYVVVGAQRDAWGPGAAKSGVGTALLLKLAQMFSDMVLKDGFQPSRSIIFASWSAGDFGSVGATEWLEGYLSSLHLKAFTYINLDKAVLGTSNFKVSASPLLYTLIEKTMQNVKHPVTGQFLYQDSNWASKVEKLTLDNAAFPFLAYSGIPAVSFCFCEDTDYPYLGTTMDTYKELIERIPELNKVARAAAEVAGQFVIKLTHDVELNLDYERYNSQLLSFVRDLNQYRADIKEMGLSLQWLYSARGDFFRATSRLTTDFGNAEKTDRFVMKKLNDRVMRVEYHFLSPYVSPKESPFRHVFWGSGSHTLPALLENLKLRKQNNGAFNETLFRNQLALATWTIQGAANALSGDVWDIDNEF

Binder	Kd [1] [µM]	koff [1] [s⁻¹]	kon [1] [M⁻¹ s⁻¹]	Kd [2] [µM]	Kd [3] [µM]	Kd [4] [µM]	Kd [5] [µM]	Ki [6] [µM]	Kd [7] [µM]	koff [7] [s⁻¹]	kon [7] [M⁻¹ s⁻¹]	Ki [8] [µM]
C5V1-siSOD1m (VHH, conjugated to the siSOD1m siRNA duplex through a linker; site and tag not given for this conjugate ; VHH conjugated through a C-terminal tag and a stable click linker to the 3' end of the sense strand of the siSOD1m siRNA duplex (SEQ ID NO 465/466). The letters cannot carry this., Member of the group m173; not shown: C-terminal tag/linker that carries the siRNA) VHH: EVQLVESGGGVVQPGGSLKLSCVASGADFSINFIRWYRQAPGKQREFVAGFTATGNTNYADSMKGRFTISRDNTKNAVYLQIDSLKPEDTAVYYCYMLDKWGQGTQVTVSS	–	–	–	–	–	–	–	0.224	–	–	–	–
C5^V29 (VHH) VHH: EVQLVESGGGVVQPGGSLKLSCVASGADFSINFIRWYRQAPGKQREFVAGFTATGHTNYADSMKGRFTISRDNTKNAVYLQIDSLKPEDTAVYYCYMLDKWGQGTQVTVSS	0.143	0.0675	472000	0.066	0.207	0.0029	0.24	–	0.000846	0.000982	1.17e+06	–
C5V13-siSOD1m (VHH, conjugated to the siSOD1m siRNA duplex through a linker; site and tag not given for this conjugate ; VHH conjugated through a C-terminal tag and a stable click linker to the 3' end of the sense strand of the siSOD1m siRNA duplex (SEQ ID NO 465/466). The letters cannot carry this., Member of the group m173; not shown: C-terminal tag/linker that carries the siRNA) VHH: EVQLVESGGGVVQPGGSLKLSCVASGTDFSINFIRWYRQAPGKQREFVAGFSATGNTNYADSMKGRFTISRDNTKNAVYLQIDSLKPEDTAVYYCYMLDKWGQGTQVTVSS	–	–	–	–	–	–	–	0.512	–	–	–	–
C5h19-siSOD1m (VHH, conjugated to the siSOD1m siRNA duplex through a linker; site and tag not given for this conjugate ; VHH conjugated through a C-terminal tag and a stable click linker to the 3' end of the sense strand of the siSOD1m siRNA duplex (SEQ ID NO 465/466). The letters cannot carry this., Member of the group m173; not shown: C-terminal tag/linker that carries the siRNA) VHH: EVQLVESGGGVVQPGGSLRLSCAASGTDFSINFIRWYRQAPGKQREFVAGFTATGNTNYADSVKGRFTISRDNAKNTLYLQMNSLRPEDTAVYYCYMLDKWGQGTQVTVSS	–	–	–	–	–	–	–	2.63	–	–	–	–
B8^V3 (VHH) VHH: EVQLVESGGGVVQPGGSLRLSCAASGEIFSINFMRWYREAPGKQREWVAGFTRDGSTNYPDSAKGRFTISRDNAKNTVYLQIDSLKPEDTAVYYCYMLDTWGQGTQVTVSS	0.193	0.0343	178000	0.019	0.052	0.036	0.206	–	0.000505	3.38e-05	66900	–
B8-siSOD1m (VHH, conjugated to the siSOD1m siRNA duplex through a linker; site and tag not given for this conjugate ; VHH conjugated through a C-terminal tag and a stable click linker to the 3' end of the sense strand of the siSOD1m siRNA duplex (SEQ ID NO 465/466). The letters cannot carry this., Member of the group m173; not shown: C-terminal tag/linker that carries the siRNA) VHH: EVQLVESGGGVVQPGGSLRLSCAASGEIFSINFMRWYRQAPGKQREWVAGFTRDGSTNYPDSAKGRFTISRDNAKNTVYLQIDSLKPEDTAVYYCYMLDTWGQGTQVTVSS	–	–	–	–	–	–	–	0.0488	–	–	–	–
B8^h1 (VHH) VHH: EVQLVESGGGVVQPGGSLRLSCAASGEIFSINFMRWYRQAPGKGLEWVAGFTRDGSTNYPDSVKGRFTISRDNAKNTVYLQMNSLRPEDTAVYYCYMLDTWGQGTQVTVSS	–	–	–	0.0019	0.0028	0.0041	–	–	0.000212	9.49e-05	444000	0.043

The remaining lines, values ahead:

Kd [1] [µM]	koff [1] [s⁻¹]	kon [1] [M⁻¹ s⁻¹]	Kd [2] [µM]	Kd [3] [µM]	Kd [4] [µM]	Kd [5] [µM]	Ki [6] [µM]	Kd [7] [µM]	koff [7] [s⁻¹]	kon [7] [M⁻¹ s⁻¹]	Ki [8] [µM]	Binder
0.0408	0.0197	524000	0.0046	0.047	0.0034	0.0405	–	–	–	–	–	VHH A9 (C5^V9) (VHH) VHH: EVQLVESGGGVVQPGGSLKLSCVASGTDFSINFIRWYRQAPGKQREFVAGFTATGNTNYADSMKGRFTISRDNTKNAVYLQIDSLKPEDTAVYYCYMLDAWGQGTQVTVSS
0.0897	0.0532	652000	0.0034	0.179	0.0031	0.0918	–	–	–	–	–	VHH A4 (C5^V4) (VHH) VHH: EVQLVESGGGVVQPGGSLKLSCVASGTDFSINFIRWYRQAPGKQREFVAGFTATGATNYADSMKGRFTISRDNTKNAVYLQIDSLKPEDTAVYYCYMLDKWGQGTQVTVSS
–	–	–	–	–	–	–	0.0761	–	–	–	–	B8h1-siSOD1m (VHH, chain 1 pos 125: Gln of the LQR Q-tag carrying the transglutaminase-installed azido linker clicked to the 3' end of the sense strand of the chemically modified siSOD1m duplex (SEQ ID NOs 465/466), written Q, Member of the group m173) VHH: EVQLVESGGGVVQPGGSLRLSCAASGEIFSINFMRWYRQAPGKGLEWVAGFTRDGSTNYPDSVKGRFTISRDNAKNTVYLQMNSLRPEDTAVYYCYMLDTWGQGTQVTVSS
